Experimental data as given in the supplement of paper PMC10065799, “High-throughput profiling of sequence recognition by tyrosine kinases and SH2 domains using bacterial peptide display” (eLife, 2023).
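Note: 11-residue human phosphosite peptides and single-mutation variants displayed on the E. coli surface, counted by deep sequencing, each peptide's frequency after selection divided by its frequency in the unselected input library; frequency after pTyr selection over input frequency; kinase dosed for 20-30% of maximal phosphorylation in three min.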

Each sequence was assayed on Fer (mouse) (assay: phosphorylation enrichment, bacterial display (enrichment ratio); higher = better substrate or ligand; peptides without Tyr show the background).
For QSSEGYDLGDR [KIAA1210_Y564_G565D], the phosphorylation enrichment was 0.607.
For VFSTDYFRVGG [NTRK2_Y706_YF], the phosphorylation enrichment was 0.499.
With ALKKPYSVLYK [RPF2_Y59_G60S] the phosphorylation enrichment was 0.44.
Work on ASMAKYFASEI [ACADSB_Y372_YF] yielded a phosphorylation enrichment of 0.449.
Sequence FETNVYVDKNL [PTCHD3_Y688_K685T] has a phosphorylation enrichment of 0.482.
Sequence EPVSDYINANV [PTPN11_Y304_I309V] has a phosphorylation enrichment of 0.384.
In the case of KHMADYPDFKF [SOX11_Y113_YF], the phosphorylation enrichment is reported as 0.434.
With LEQGEYALRSH [HADHB_Y244_D242G] the phosphorylation enrichment was 0.564.
With FFRKVYHLASV [RBL1_Y796_YF] the phosphorylation enrichment was 0.374.
In the case of REEKNYKHKET [BCLAF1_Y459_L461H], the phosphorylation enrichment is reported as 0.647.
With LFNQDYPIHCV [GATM_Y227_S231C_YF] the phosphorylation enrichment was 1.03.
With QEIATYRRLLE [KRT14_Y415] the phosphorylation enrichment was 0.411.
QLGLQYSQGLV [EIF2B4_Y214_R209Q] showed a phosphorylation enrichment of 0.527.
Work on HTDDGYMPMSP [IRS1_Y612] yielded a phosphorylation enrichment of 0.824.
Sequence SQPASYQRRLL [PPIG_Y320] has a phosphorylation enrichment of 0.286.
Sequence NVVNEYSSELE [FGB_Y172] has a phosphorylation enrichment of 0.515.
Sequence LFEDCYLLGTS [ASS1_Y87_R86C_YF] has a phosphorylation enrichment of 0.752.
RGEAVYSRDCV [XPC_Y676] gave a phosphorylation enrichment of 0.472.
EEGENYQKGER [CHGB_Y173] gave a phosphorylation enrichment of 0.518.
With TTKGAYSLSVR [YES1_Y194_I198V] the phosphorylation enrichment was 0.403.
ATDLAYFLVRE [ASL_Y375_K380E_YF] was tested, and the phosphorylation enrichment was 0.797.
GESQGYDIMEA [MSH2_Y863_P868A] showed a phosphorylation enrichment of 0.463.
For DLNATYRTIQG [U2SURP_Y634], the phosphorylation enrichment was 0.518.
Sequence FHLGKYLQEVL [KLB_Y910_Y906H_YF] has a phosphorylation enrichment of 0.48.
In the case of TVSTRYTQPQP [SARG_Y259], the phosphorylation enrichment is reported as 0.471.
With PVGVLYEVKVY [PTS_Y128_K129E] the phosphorylation enrichment was 0.56.
In the case of LPSKDYAEVGR [HP_Y272], the phosphorylation enrichment is reported as 0.801.
Sequence YLEEEYVKAVG [TF_Y674_G671E] has a phosphorylation enrichment of 0.615.
In the case of SKEPYYVHCIK [MYO1D_Y586_R588H], the phosphorylation enrichment is reported as 0.498.
FRDALYKFMVD [PHEX_Y250_YF] gave a phosphorylation enrichment of 0.676.
NTGDFCDLFGG [PTPN11_Y63_Y63C_YF] gave a phosphorylation enrichment of 0.487.
GRSTFYWPSPR [GAGE12J_Y10_R13S_YF] showed a phosphorylation enrichment of 0.399.
For FNSLPYQVPTS [CALCOCO2_Y358], the phosphorylation enrichment was 1.36.

What follows are sequences tested against Jak2 (UniProt O60674) in the same assay as above.
Jak2, sequence (O60674 whole entry, looked up): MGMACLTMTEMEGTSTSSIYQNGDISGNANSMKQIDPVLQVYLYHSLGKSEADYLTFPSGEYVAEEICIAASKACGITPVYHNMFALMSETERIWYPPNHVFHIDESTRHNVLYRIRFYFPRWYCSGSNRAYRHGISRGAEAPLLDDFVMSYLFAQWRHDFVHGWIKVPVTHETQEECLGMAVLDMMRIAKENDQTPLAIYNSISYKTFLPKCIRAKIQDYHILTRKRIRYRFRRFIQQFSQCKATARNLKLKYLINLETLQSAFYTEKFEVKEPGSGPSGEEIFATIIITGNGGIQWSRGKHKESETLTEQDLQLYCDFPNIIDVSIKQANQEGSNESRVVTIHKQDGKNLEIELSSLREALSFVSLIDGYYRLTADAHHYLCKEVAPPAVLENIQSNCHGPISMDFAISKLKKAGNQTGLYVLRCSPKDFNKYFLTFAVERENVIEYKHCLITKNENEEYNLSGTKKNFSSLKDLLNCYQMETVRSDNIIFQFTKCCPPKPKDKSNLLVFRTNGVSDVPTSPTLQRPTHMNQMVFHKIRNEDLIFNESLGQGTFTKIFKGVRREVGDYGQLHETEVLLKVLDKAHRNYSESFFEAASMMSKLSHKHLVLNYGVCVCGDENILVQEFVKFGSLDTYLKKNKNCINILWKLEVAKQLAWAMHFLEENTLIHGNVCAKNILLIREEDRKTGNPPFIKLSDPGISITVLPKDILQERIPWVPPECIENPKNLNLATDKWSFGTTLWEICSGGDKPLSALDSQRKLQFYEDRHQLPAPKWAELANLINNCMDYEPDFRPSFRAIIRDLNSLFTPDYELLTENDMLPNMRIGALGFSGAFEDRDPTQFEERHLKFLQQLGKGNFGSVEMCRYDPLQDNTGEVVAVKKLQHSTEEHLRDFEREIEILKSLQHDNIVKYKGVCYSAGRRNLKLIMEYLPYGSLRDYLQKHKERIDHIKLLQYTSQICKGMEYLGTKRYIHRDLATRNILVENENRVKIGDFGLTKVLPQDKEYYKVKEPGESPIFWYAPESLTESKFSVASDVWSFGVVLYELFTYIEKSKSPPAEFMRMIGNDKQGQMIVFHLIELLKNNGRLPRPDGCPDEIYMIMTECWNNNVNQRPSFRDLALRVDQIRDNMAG
QSSEGYDLGDR [KIAA1210_Y564_G565D] gave a phosphorylation enrichment of 1.09.
With VFSTDYFRVGG [NTRK2_Y706_YF] the phosphorylation enrichment was 8.12.
For ALKKPYSVLYK [RPF2_Y59_G60S], the phosphorylation enrichment was 0.467.
For ASMAKYFASEI [ACADSB_Y372_YF], the phosphorylation enrichment was 0.817.
For FETNVYVDKNL [PTCHD3_Y688_K685T], the phosphorylation enrichment was 0.53.
EPVSDYINANV [PTPN11_Y304_I309V] showed a phosphorylation enrichment of 0.754.
With KHMADYPDFKF [SOX11_Y113_YF] the phosphorylation enrichment was 0.669.
Sequence LEQGEYALRSH [HADHB_Y244_D242G] has a phosphorylation enrichment of 0.855.
Work on FFRKVYHLASV [RBL1_Y796_YF] yielded a phosphorylation enrichment of 0.713.
For REEKNYKHKET [BCLAF1_Y459_L461H], the phosphorylation enrichment was 0.571.
Sequence LFNQDYPIHCV [GATM_Y227_S231C_YF] has a phosphorylation enrichment of 1.17.
Work on QEIATYRRLLE [KRT14_Y415] yielded a phosphorylation enrichment of 0.693.
Work on QLGLQYSQGLV [EIF2B4_Y214_R209Q] yielded a phosphorylation enrichment of 1.75.
Work on HTDDGYMPMSP [IRS1_Y612] yielded a phosphorylation enrichment of 1.37.
SQPASYQRRLL [PPIG_Y320] gave a phosphorylation enrichment of 0.35.
In the case of NVVNEYSSELE [FGB_Y172], the phosphorylation enrichment is reported as 0.99.
For LFEDCYLLGTS [ASS1_Y87_R86C_YF], the phosphorylation enrichment was 1.39.
With RGEAVYSRDCV [XPC_Y676] the phosphorylation enrichment was 1.01.
For EEGENYQKGER [CHGB_Y173], the phosphorylation enrichment was 0.963.
TTKGAYSLSVR [YES1_Y194_I198V] gave a phosphorylation enrichment of 0.511.
ATDLAYFLVRE [ASL_Y375_K380E_YF] showed a phosphorylation enrichment of 2.29.
GESQGYDIMEA [MSH2_Y863_P868A] gave a phosphorylation enrichment of 0.744.
DLNATYRTIQG [U2SURP_Y634] was tested, and the phosphorylation enrichment was 0.609.
With FHLGKYLQEVL [KLB_Y910_Y906H_YF] the phosphorylation enrichment was 1.36.
TVSTRYTQPQP [SARG_Y259] showed a phosphorylation enrichment of 0.605.
Work on PVGVLYEVKVY [PTS_Y128_K129E] yielded a phosphorylation enrichment of 1.78.
Sequence LPSKDYAEVGR [HP_Y272] has a phosphorylation enrichment of 0.684.
Sequence YLEEEYVKAVG [TF_Y674_G671E] has a phosphorylation enrichment of 1.18.
For SKEPYYVHCIK [MYO1D_Y586_R588H], the phosphorylation enrichment was 0.677.
FRDALYKFMVD [PHEX_Y250_YF] showed a phosphorylation enrichment of 1.23.
With NTGDFCDLFGG [PTPN11_Y63_Y63C_YF] the phosphorylation enrichment was 0.969.
GRSTFYWPSPR [GAGE12J_Y10_R13S_YF] was tested, and the phosphorylation enrichment was 0.713.
In the case of FNSLPYQVPTS [CALCOCO2_Y358], the phosphorylation enrichment is reported as 0.611.

What follows are sequences tested against Fes (UniProt P07332) in the same assay as above.
Fes, sequence (P07332 whole entry, looked up): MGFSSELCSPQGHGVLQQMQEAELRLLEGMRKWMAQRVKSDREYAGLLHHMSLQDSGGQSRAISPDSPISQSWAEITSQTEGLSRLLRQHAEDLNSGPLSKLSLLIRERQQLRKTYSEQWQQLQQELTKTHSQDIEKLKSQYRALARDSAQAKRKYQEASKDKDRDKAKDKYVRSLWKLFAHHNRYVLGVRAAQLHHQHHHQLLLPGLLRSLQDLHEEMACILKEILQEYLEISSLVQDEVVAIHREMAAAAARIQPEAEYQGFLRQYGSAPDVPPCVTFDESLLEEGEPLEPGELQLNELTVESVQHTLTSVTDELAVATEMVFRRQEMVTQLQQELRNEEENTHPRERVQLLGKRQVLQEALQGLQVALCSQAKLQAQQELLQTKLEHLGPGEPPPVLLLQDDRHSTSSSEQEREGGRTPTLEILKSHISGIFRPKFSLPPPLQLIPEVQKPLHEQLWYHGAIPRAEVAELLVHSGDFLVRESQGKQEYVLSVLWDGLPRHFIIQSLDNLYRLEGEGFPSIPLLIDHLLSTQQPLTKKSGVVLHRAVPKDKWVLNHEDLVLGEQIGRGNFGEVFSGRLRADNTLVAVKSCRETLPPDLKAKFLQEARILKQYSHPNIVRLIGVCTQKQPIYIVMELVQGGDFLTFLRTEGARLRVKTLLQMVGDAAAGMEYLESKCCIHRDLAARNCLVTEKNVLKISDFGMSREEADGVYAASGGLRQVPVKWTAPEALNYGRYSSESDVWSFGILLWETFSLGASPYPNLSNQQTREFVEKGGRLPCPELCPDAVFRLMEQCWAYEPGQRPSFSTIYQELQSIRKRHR
In the case of QSSEGYDLGDR [KIAA1210_Y564_G565D], the phosphorylation enrichment is reported as 1.43.
In the case of VFSTDYFRVGG [NTRK2_Y706_YF], the phosphorylation enrichment is reported as 0.859.
In the case of ALKKPYSVLYK [RPF2_Y59_G60S], the phosphorylation enrichment is reported as 0.674.
Sequence ASMAKYFASEI [ACADSB_Y372_YF] has a phosphorylation enrichment of 0.842.
FETNVYVDKNL [PTCHD3_Y688_K685T] was tested, and the phosphorylation enrichment was 0.938.
EPVSDYINANV [PTPN11_Y304_I309V] showed a phosphorylation enrichment of 0.855.
For KHMADYPDFKF [SOX11_Y113_YF], the phosphorylation enrichment was 0.84.
For LEQGEYALRSH [HADHB_Y244_D242G], the phosphorylation enrichment was 0.993.
In the case of FFRKVYHLASV [RBL1_Y796_YF], the phosphorylation enrichment is reported as 0.781.
REEKNYKHKET [BCLAF1_Y459_L461H] gave a phosphorylation enrichment of 1.45.
Work on LFNQDYPIHCV [GATM_Y227_S231C_YF] yielded a phosphorylation enrichment of 1.49.
QEIATYRRLLE [KRT14_Y415] was tested, and the phosphorylation enrichment was 0.936.
With QLGLQYSQGLV [EIF2B4_Y214_R209Q] the phosphorylation enrichment was 0.835.
HTDDGYMPMSP [IRS1_Y612] was tested, and the phosphorylation enrichment was 1.59.
SQPASYQRRLL [PPIG_Y320] showed a phosphorylation enrichment of 0.451.
For NVVNEYSSELE [FGB_Y172], the phosphorylation enrichment was 1.25.
In the case of LFEDCYLLGTS [ASS1_Y87_R86C_YF], the phosphorylation enrichment is reported as 1.5.
RGEAVYSRDCV [XPC_Y676] showed a phosphorylation enrichment of 1.2.
EEGENYQKGER [CHGB_Y173] gave a phosphorylation enrichment of 1.15.
TTKGAYSLSVR [YES1_Y194_I198V] gave a phosphorylation enrichment of 0.73.
ATDLAYFLVRE [ASL_Y375_K380E_YF] showed a phosphorylation enrichment of 1.51.
GESQGYDIMEA [MSH2_Y863_P868A] showed a phosphorylation enrichment of 0.883.
Work on DLNATYRTIQG [U2SURP_Y634] yielded a phosphorylation enrichment of 0.846.
For FHLGKYLQEVL [KLB_Y910_Y906H_YF], the phosphorylation enrichment was 1.52.
Work on TVSTRYTQPQP [SARG_Y259] yielded a phosphorylation enrichment of 0.561.
For PVGVLYEVKVY [PTS_Y128_K129E], the phosphorylation enrichment was 1.67.
With LPSKDYAEVGR [HP_Y272] the phosphorylation enrichment was 2.22.
YLEEEYVKAVG [TF_Y674_G671E] was tested, and the phosphorylation enrichment was 1.32.
SKEPYYVHCIK [MYO1D_Y586_R588H] gave a phosphorylation enrichment of 0.932.
Work on FRDALYKFMVD [PHEX_Y250_YF] yielded a phosphorylation enrichment of 1.37.
NTGDFCDLFGG [PTPN11_Y63_Y63C_YF] gave a phosphorylation enrichment of 1.11.
GRSTFYWPSPR [GAGE12J_Y10_R13S_YF] was tested, and the phosphorylation enrichment was 0.697.
With FNSLPYQVPTS [CALCOCO2_Y358] the phosphorylation enrichment was 0.63.

These sequences were tested on c-Abl (mouse) in the same assay as above.
For QSSEGYDLGDR [KIAA1210_Y564_G565D], the phosphorylation enrichment was 1.12.
VFSTDYFRVGG [NTRK2_Y706_YF] showed a phosphorylation enrichment of 0.734.
Work on ALKKPYSVLYK [RPF2_Y59_G60S] yielded a phosphorylation enrichment of 0.516.
For ASMAKYFASEI [ACADSB_Y372_YF], the phosphorylation enrichment was 0.474.
FETNVYVDKNL [PTCHD3_Y688_K685T] showed a phosphorylation enrichment of 1.01.
Sequence EPVSDYINANV [PTPN11_Y304_I309V] has a phosphorylation enrichment of 0.567.
Sequence KHMADYPDFKF [SOX11_Y113_YF] has a phosphorylation enrichment of 0.591.
LEQGEYALRSH [HADHB_Y244_D242G] was tested, and the phosphorylation enrichment was 0.815.
Sequence FFRKVYHLASV [RBL1_Y796_YF] has a phosphorylation enrichment of 0.581.
REEKNYKHKET [BCLAF1_Y459_L461H] showed a phosphorylation enrichment of 0.917.
With LFNQDYPIHCV [GATM_Y227_S231C_YF] the phosphorylation enrichment was 1.11.
Sequence QEIATYRRLLE [KRT14_Y415] has a phosphorylation enrichment of 0.563.
With QLGLQYSQGLV [EIF2B4_Y214_R209Q] the phosphorylation enrichment was 0.861.
Sequence HTDDGYMPMSP [IRS1_Y612] has a phosphorylation enrichment of 1.04.
Sequence SQPASYQRRLL [PPIG_Y320] has a phosphorylation enrichment of 0.301.
NVVNEYSSELE [FGB_Y172] was tested, and the phosphorylation enrichment was 0.717.
For LFEDCYLLGTS [ASS1_Y87_R86C_YF], the phosphorylation enrichment was 1.17.
In the case of RGEAVYSRDCV [XPC_Y676], the phosphorylation enrichment is reported as 0.692.
EEGENYQKGER [CHGB_Y173] showed a phosphorylation enrichment of 0.797.
TTKGAYSLSVR [YES1_Y194_I198V] showed a phosphorylation enrichment of 0.517.
In the case of ATDLAYFLVRE [ASL_Y375_K380E_YF], the phosphorylation enrichment is reported as 0.939.
For GESQGYDIMEA [MSH2_Y863_P868A], the phosphorylation enrichment was 0.577.
Sequence DLNATYRTIQG [U2SURP_Y634] has a phosphorylation enrichment of 0.641.
With FHLGKYLQEVL [KLB_Y910_Y906H_YF] the phosphorylation enrichment was 1.01.
TVSTRYTQPQP [SARG_Y259] was tested, and the phosphorylation enrichment was 0.576.
With PVGVLYEVKVY [PTS_Y128_K129E] the phosphorylation enrichment was 2.37.
With LPSKDYAEVGR [HP_Y272] the phosphorylation enrichment was 0.726.
In the case of YLEEEYVKAVG [TF_Y674_G671E], the phosphorylation enrichment is reported as 1.01.
SKEPYYVHCIK [MYO1D_Y586_R588H] gave a phosphorylation enrichment of 0.615.
With FRDALYKFMVD [PHEX_Y250_YF] the phosphorylation enrichment was 0.834.
NTGDFCDLFGG [PTPN11_Y63_Y63C_YF] showed a phosphorylation enrichment of 0.655.
In the case of GRSTFYWPSPR [GAGE12J_Y10_R13S_YF], the phosphorylation enrichment is reported as 0.726.
For FNSLPYQVPTS [CALCOCO2_Y358], the phosphorylation enrichment was 2.56.
